Test results published in doi:10.1101/2020.09.30.318972 (bioRxiv, 2020).

Legend:
[1] = biological target: T1, SARS-CoV-2 spike protein receptor-binding domain (SARS-CoV-2, UniProt P0DTC2); assay: SPR
[2] = biological target: T1, SARS-CoV-2 spike protein …; assay: crystal structure

Binder	binding result [1]	binding result [2]
LY-CoV555 (antibody, V domains shown) VH: QVQLVQSGAEVKKPGSSVKVSCKASGGTFSNYAISWVRQAPGQGLEWMGRIIPILGIANYAQKFQGRVTITADKSTSTAYMELSSLRSEDTAVYYCARGYYEARHYYYYYAMDVWGQGTAVTVSS VL: not shown	binds	
LY-CoV555 Fab (Fab, V domains shown) VH: QVQLVQSGAEVKKPGSSVKVSCKASGGTFSNYAISWVRQAPGQGLEWMGRIIPILGIANYAQKFQGRVTITADKSTSTAYMELSSLRSEDTAVYYCARGYYEARHYYYYYAMDVWGQGTAVTVSS VL: not shown		binds
